T1: RNCs carrying the most N-terminal 100 residues of Pgk1 as a nascent chain (yeast (S. cerevisiae) | S. cerevisiae) (UniProt P00560)
T1 sequence (P00560 1-100, looked up): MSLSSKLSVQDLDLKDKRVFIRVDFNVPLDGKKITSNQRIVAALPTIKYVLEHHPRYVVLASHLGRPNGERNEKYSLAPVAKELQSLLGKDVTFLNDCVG


How the values were obtained:
[1] = target: T1, RNCs carrying the most N-terminal 100 residues of Pgk1 as a nascent chain (yeast (S. cerevisiae) | S. cerevisiae); test: pull-down; FLAG-tag pull-down of RNCs with N-terminally FLAG-tagged nascent chains made in yeast translation extracts (wild type, Δsrp54, without Get4/5, without Sgt2 or Get3; with or without 2 µM purified His6Get4/Get5), RNCs first pelleted through a sucrose cushion; immunoblot
[2] = target: released Sec22 (yeast (S. cerevisiae)) (UniProt P22214); test: pull-down; FLAG-tag pull-down of radiolabelled ribosome-released FLAG-Sec22 from yeast translation reactions (wild type, Δget3 with or without 2 µM His6Get4/Get5, Δget3Δget4Δget5); immunoblot
80S ribosome = 80S ribosome (S. cerevisiae); test: fluorescence polarisation; fluorescence anisotropy; Get4/5-Atto390 held at 20 nM, 80S ribosomes added to 20–500 nM; 20 °C; 50 mM Tris/HCl pH 7.5, 70 mM NH4Cl, 30 mM KCl, 7 mM MgCl2; one site saturation binding fit; conditions: both partners purified

Sequence of released Sec22 (yeast (S. cerevisiae)) (P22214 whole entry): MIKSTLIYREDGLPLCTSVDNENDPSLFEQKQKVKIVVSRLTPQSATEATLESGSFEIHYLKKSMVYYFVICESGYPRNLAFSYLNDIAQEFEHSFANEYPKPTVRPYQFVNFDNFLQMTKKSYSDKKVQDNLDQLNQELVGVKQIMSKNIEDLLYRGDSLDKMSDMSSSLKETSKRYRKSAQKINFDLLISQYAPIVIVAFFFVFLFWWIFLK

| percent associated with RNCs [1] [%] | Molecule | further results |
| --- | --- | --- |
| 2 | Get5 (from UniProt Q12285 1-212) (natural protein) | – |
| 0.3 | signal recognition particle (SRP), followed by its 54 kDa subunit Srp54 (natural protein) MVLADLGKRINSAVNNAISNTQDDFTTSVDVMLKGIVTALLESDVNIALVSKLRNNIRSQLLSENRSEKSTTNAQTKKLIQKTVFDELCKLVTCEGSEEKAFVPKKRKTNIIMFVGLQGSGKTTSCTKLAVYYSKRGFKVGLVCADTFRAGAFDQLKQNAIRARIPFYGSYTETDPAKVAEEGINKFKKEKFDIIIVDTSGRHHQEEELFQEMIEISNVIKPNQTIMVLDASIGQAAEQQSKAFKESSDFGAIILTKMDGHARGGGAISAVAATNTPIIFIGTGEHIHDLEKFSPKSFISKLLGIGDIESLFEQLQTVSNKEDAKATMENIQKGKFTLLDFKKQMQTIMKMGPLSNIAQMIPGMSNMMNQVGEEETSQKMKKMVYVLDSMTKEELESDGRMFIEEPTRMVRVAKGSGTSVFEVEMILMQQQMMARMAQTATQQQPGAPGANARMPGMPNMPGMPNMPGMPNMPGMPKVTPQMMQQAQQKLKQNPGLMQNMMNMFGGGMGGGMGGGMPDMNEMMKMMQDPQMQQMAKQFGMG | – |

The next lines start with the molecule.

| Molecule | percent associated with RNCs [1] [%] | further results |
| --- | --- | --- |
| Get4 (from UniProt Q12125 1-312) (natural protein) | 2 | – |
| Sgt2 (from UniProt Q12118 1-346) (natural protein) | – | fold change of binding with added m3 against no addition, Δget3 extract [2]: > 2 fold |
| Get4/5-Atto390 (complex, yeast (S. cerevisiae), ATTO-390-maleimide on the surface-exposed cysteine of the two cysteines present in Get4 (C177, 255), Get4, yeast; Get5, yeast; also called Get4/His6Get5; Get4_(2)Get5_(2) complex; copies: 2 + 2) chain 1: MVPAESNAVQAKLAKTLQRFENKIKAGDYYEAHQTLRTIANRYVRSKSYEHAIELISQGALSFLKAKQGGSGTDLIFYLLEVYDLAEVKVDDISVARLVRLIAELDPSEPNLKDVITGMNNWSIKFSEYKFGDPYLHNTIGSKLLEGDFVYEAERYFMLGTHDSMIKYVDLLWDWLCQVDDIEDSTVAEFFSRLVFNYLFISNISFAHESKDIFLERFIEKFHPKYEKIDKNGYEIVFFEDYSDLNFLQLLLITCQTKDKSYFLNLKNHYLDFSQAYKSELEFLGQEYFNIVAPKQTNFLQDMMSGFLGGSK chain 2: MSTSASGPEHEFVSKFLTLATLTEPKLPKSYTKPLKDVTNLGVPLPTLKYKYKQNRAKKLKLHQDQQGQDNAAVHLTLKKIQAPKFSIEHDFSPSDTILQIKQHLISEEKASHISEIKLLLKGKVLHDNLFLSDLKVTPANSTITVMIKPNPTISKEPEAEKSTNSPAPAPPQELTVPWDDIEALLKNNFENDQAAVRQVMERLQKGWSLAK | – | Kd (80S ribosome): 110 nM |

Source: paper PMC7862611, “Ribosome-bound Get4/5 facilitates the capture of tail-anchored proteins by Sgt2 in yeast” (Nature Communications, 2021)
